Assay results reported in FireProtDB (doi:10.1016/0022-2836(92)90562-x).

B1: Ribonuclease, P00648 (parent)
chain: MMKMEGIALKKRLSWISVCLLVLVSAAGMLFSTAAKTETSSHKAHTEAQVINTFDGVADYLQTYHKLPDNYITKSEAQALGWVASKGNLADVAPGKSIGGDIFSNREGKLPGKSGRTWREADINYTSGFRNSDRILYSSDWLIYKTTDHYQTFTKIR

Variants of: B1
Conditions: Bacillus amyloliquefaciens; pH 6.3; 25 °C; Urea; Fluorescence; MES-NaOH 450 mM; reversible: yes; structure 1BNI; whole UniProt chain shown

Variant | ddG of mutation (higher = less stable) [kcal/mol] | denaturant m value [kcal/mol/M] | denaturant midpoint (higher = more stable) [M] | unfolding free energy [kcal/mol]
I51A | 0.75 | 2.08 | 3.8 | 8.07
I51V | 0.81 | 1.88 | 4.2 | 8.01
N52A | 1.59 | 2 | 3.6 | 7.23
T53A | 2.02 | 1.97 | 3.4 | 6.8
T53G | 0.61 | 2.08 | 3.9 | 8.21
D55A | 0.85 | 1.94 | 4.1 | 7.97
D55A D59A | 1.41 | 1.78 | 4.16 | 7.41
D55A D59A R157A | -0.18 | 1.94 | 4.63 | 9
V57A | 3.47 | 1.89 | 2.8 | 5.35
V57T | 1.99 | 2.07 | 3.3 | 6.83
D59A | 0.39 | 1.91 | 4.4 | 8.43
D59A R157A | -0.39 | 1.93 | 4.78 | 9.21
Y60A | 3 | 2.03 | 2.8 | 5.82
Y60A Y64A | 3.96 | 2 | 2.43 | 4.86
L61A | 4.53 | 1.87 | 2.2 | 4.29
T63R | -0.74 | 1.99 | 4.8 | 9.56
T63S | 1.36 | 2.03 | 3.6 | 7.46
Y64A | 1.67 | 2.02 | 3.5 | 7.15
N70A | 2.2 | 1.94 | 3.4 | 6.62
Y71F | -0.09 | 1.95 | 4.5 | 8.91

Variant | ddG of mutation (higher = less stable) [kcal/mol] | denaturant m value [kcal/mol/M] | denaturant midpoint (higher = more stable) [M] | unfolding free energy [kcal/mol]
I72A | 3.68 | 1.85 | 2.7 | 5.14
I72V | 0.83 | 2 | 4 | 7.99
T73A | 1.67 | 2 | 3.5 | 7.15
T73G | 1.01 | 2.03 | 3.8 | 7.81
K74G | 0.38 | 1.94 | 4.3 | 8.44
E76G | 2.05 | 1.84 | 3.6 | 6.77
Q78S | -0.07 | 2 | 4.4 | 8.89
V83A | 1.68 | 1.83 | 3.9 | 7.14
V83T | 1.05 | 1.95 | 3.9 | 7.77
N88D | 2.62 | 1.89 | 3.2 | 6.2
V92A | 1.17 | 2.08 | 3.6 | 7.65
V92T | 2.22 | 1.99 | 3.3 | 6.6
I98A | 4.72 | 1.9 | 2.1 | 4.1
I98V | 1.13 | 2.11 | 3.6 | 7.69
D101A | 2.86 | 1.95 | 3 | 5.96
D101N | 1.78 | 2.11 | 3.3 | 7.04
I102T | 1.24 | 1.84 | 4.1 | 7.58
I102V | 0.63 | 1.85 | 4.4 | 8.19
N105A | 2 | 1.97 | 3.4 | 6.82
N105D | -0.31 | 1.9 | 4.8 | 9.13

Variant | ddG of mutation (higher = less stable) [kcal/mol] | denaturant m value [kcal/mol/M] | denaturant midpoint (higher = more stable) [M] | unfolding free energy [kcal/mol]
K109R | 0.32 | 1.95 | 4.3 | 8.5
I123A | 1.66 | 1.99 | 3.6 | 7.16
I123V | 0.98 | 1.89 | 4.1 | 7.84
N124A | 1.45 | 1.98 | 3.7 | 7.37
Y125F | 1.14 | 1.98 | 3.8 | 7.68
N131A | 1.59 | 2.04 | 3.5 | 7.23
I135A | 4.02 | 1.94 | 2.4 | 4.8
I135V | 1.64 | 1.85 | 3.8 | 7.18
L136T | 3.28 | 1.78 | 3.1 | 5.54
L136V | 0.47 | 1.89 | 4.4 | 8.35
S138A | 2.41 | 1.79 | 3.5 | 6.41
S139A | 3.22 | 1.78 | 3.1 | 5.6
I143A | 3.15 | 1.96 | 2.8 | 5.67
I143V | 1.02 | 1.9 | 4.1 | 7.8
T146V | 2.92 | 1.84 | 3.2 | 5.9
Y150F | 0.18 | 1.89 | 4.5 | 8.64
T152V | 2.14 | 1.95 | 3.4 | 6.68
I156A | 1.27 | 2.15 | 3.5 | 7.55
I156V | 0.81 | 1.92 | 4.1 | 8.01
R157A | -0.07 | 2.03 | 4.3 | 8.89
